This is an account of results in article PMC3413145.

Read-outs that look alike come from different tables or passages of the source.

Assay in all cases: EMSA
A general note: Mobility shift assays separate free from complexed probe on a gel.

For series [1], the target named is RNAP core enzyme (alpha2 beta beta' omega);sigmaA (Mycobacterium tuberculosis (H37Rv for …, UniProt P9WGZ1;P9WGY9;P9WGY7;P9WGY5;P9WGI1 1-347;1-1178;1-1316;1-110;1-528, |)).
Series [2] deals with T1, RNAP core enzyme (alpha2 beta beta' omega);sigmaA;RbpA (Mycobacterium tuberculosis (H37Rv for …, UniProt P9WGZ1;P9WGY9;P9WGY7;P9WGY5;P9WGI1;P9WHJ5 1-347;1-1178;1-1316;1-110;1-528;1-111, ||)).
Series [3] concerns the target E. coli RNAP core enzyme;sigmaA (Escherichia coli;Mycobacterium …, UniProt P0A7Z4;P0A8V2;P0A8T7;P0A800;P9WGI1 1-329;1-1342;1-1407;1-91;1-528, |).
In series [4] the target is T1, RNAP core enzyme (alpha2 beta beta' …). The source holds these as a separate data set.

B1: rrnAP3 promoter fragment (150 bp) (dsDNA)
DNA 1: ATCGAACGGGTATGCTGTTAGGCGACGGTCACCTATGGATATCTATGGATGACCGAACCTGGTCTTGACTCCATTGCCGGATTTGTATTAGACTGGCAGGGTTGCCCCGAAGCGGGCGGAAACAAGCAAGCGTGTTGTTTGAGAACTCAA
DNA 2: TTGAGTTCTCAAACAACACGCTTGCTTGTTTCCGCCCGCTTCGGGGCAACCCTGCCAGTCTAATACAAATCCGGCAATGGAGTCAAGACCAGGTTCGGTCATCCATAGATATCCATAGGTGACCGTCGCCTAACAGCATACCCGTTCGAT
As for B1, the binding result in series [1], in series [2] and in series [3] was “binds” each time.

B2: sinP3 promoter fragment (127 bp) (dsDNA)
DNA 1: TTTAAACAAAAAGTCTGCTCATCCTGGTCCGGCAGCCAGAAGTCATACCGTAAATCCTTTCTGAATGTGCTATAATATCACAAGGAAGGTGATGACATTGATTGGCCAGCGTATTAAACAATACCGT
DNA 2: ACGGTATTGTTTAATACGCTGGCCAATCAATGTCATCACCTTCCTTGTGATATTATAGCACATTCAGAAAGGATTTACGGTATGACTTCTGGCTGCCGGACCAGGATGAGCAGACTTTTTGTTTAAA
As to B2, in series [4], the binding result was “binds”.
